Data from the supplement of paper PMC10567573.
± gives the standard deviation.

Test: protein stability index of a GFP-peptide fusion (GPS, HEK-293T) (PSI 1-6); higher = more stable
[1] = treatment: DMSO, c terminus: a fixed tail appended
[2] = treatment: MLN4924 1 uM, 8 h, c terminus: a fixed tail appended
[3] = treatment: DMSO, c terminus: native
[4] = treatment: MLN4924 1 uM, 8 h, c terminus: native
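Also: 24-mer peptide tiles fused after GFP, lentivirally expressed, FACS-sorted into six equal bins by GFP/DsRed ratio, decoded by Illumina sequencing, PSI is the read-weighted mean bin number.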

Sequence | protein stability index [1] | protein stability index [2] | protein stability index [3] | protein stability index [4]
VQSEIFLHESYCMDTSHQPLLPAP [LYSMD4] | 2.93 ± 0.23 | 2.76 ± 0.28 | – | –
GGNVECIKLLQSSGADFHKKDKCG [ANKRD44] | 4.48 ± 0.17 | 4.38 ± 0.1 | – | –
MSEIRFTNLTWDQVITLDQVLDEV [TENT5D] | 2.33 ± 0.33 | 2.31 ± 0.27 | – | –
NQKCQLRLLKTLETSRSHDLEAVV [ATP23] | 3.14 ± 0.12 | 3.3 ± 0.2 | – | –
SIPLERIHFDSYITCVSGAIVDLI [FBXO33] | 2.44 ± 0.42 | 2.26 ± 0.42 | – | –
MYDEKAHEWKSLAPMDAPRYQHGI [KLHL13] | 3.15 ± 0.21 | 3.4 ± 0.17 | – | –
GEDSSTSSSTPLEDEEPQEPNRLE [RTN2] | 5.56 ± 0.26 | 5.57 ± 0.25 | – | –
RGLIPVKRGPSSRSGGPPPKKSAP [RBMY1A1] | 4.3 ± 0.58 | 4.73 ± 0.28 | – | –
IESKIPLNMEEPPVEEPEPKPDRL [SLC19A2] | 5.36 ± 0.24 | 5.57 ± 0.12 | – | –
LDKQAKLSRAYDGTTYLPGIVGLN [USP39] | 3.15 ± 0.39 | 3.1 ± 0.2 | – | –
SFVYGAVPIGASIYVIGDLDTGTN [GAN] | 2.35 ± 0.32 | 2.29 ± 0.61 | – | –
SLENTLTESEAHYSSQLSQVQSLI [KRT34] | 3.32 ± 0.093 | 3.42 ± 0.31 | – | –
IPPPLSSVYAWGGGLGTPLRLPML [NEK8] | 2.32 ± 0.087 | 2.32 ± 0.034 | – | –
HRGCGDGCCCPSCYRRYRFTGFY [KRTAP19-2] | – | – | 2.83 ± 0.59 | 3.31 ± 0.47
QGGKDFNVPLSISRLTPGGKAAQA [PDLIM7] | 4.23 ± 0.26 | 4.35 ± 0.15 | – | –
NCGKSFSRLTALTLHQRTHTEERP [ZNF449] | 3.38 ± 0.27 | 3.36 ± 0.26 | – | –
LTKYPTDRDSIWKCLKFLGSRHPT [INTS4] | 2.38 ± 0.19 | 2.39 ± 0.095 | – | –
AASISDGDCDAREEKQRELARKGS [FAM219A] | 5.54 ± 0.2 | 5.52 ± 0.2 | – | –
QDFNTMFTNCYIYNKPTDDIVLMA [BRD3] | 2.12 ± 0.28 | 2.23 ± 0.25 | – | –
MATQADLMELDMAMEPDRKAAVSH [CTNNB1] | 4.78 ± 0.19 | 4.95 ± 0.15 | – | –
EIANEDRKHALERFEQEAVAVDSN [CCDC89] | 5.01 ± 0.42 | 5.31 ± 0.16 | – | –
IQFATPNDFCSFYNILKTCRGHTL [CARM1] | 2.47 ± 0.41 | 2.24 ± 0.22 | – | –
VYMTEPIDEYCVQQLKEFDGKSLV [HSP90AB1] | 3.06 ± 0.15 | 3.29 ± 0.25 | – | –

Sequence | protein stability index [1] | protein stability index [2] | protein stability index [3] | protein stability index [4]
RLICDFPFDGLLEERALLLGRMGK [VPS39] | 2.28 ± 0.25 | 2.28 ± 0.12 | – | –
EAAPRQCIELYFDEKYSIEPSWEC [NETO1] | 2.48 ± 0.2 | 2.73 ± 0.57 | – | –
SIQWPGKRSSRRVQRHNSFSPNSP [NECAB1] | 3.54 ± 0.27 | 3.62 ± 0.23 | – | –
TVVREVIFLGFSSLARLQQLLFVI [OR10K2] | 3.15 ± 0.73 | 2.87 ± 0.55 | – | –
EINPPPHTMEEEEDDDWGEDTTEE [EIF5] | 5.52 ± 0.28 | 5.34 ± 0.48 | – | –
GLSPYSDYEFRVVAVNNIGRGPPS [PTPRD] | 2.41 ± 0.35 | 3.14 ± 0.033 | – | –
QDPQLHSPFSGSLHAPPAFYSTSS [VENTX] | 3.65 ± 0.2 | 3.75 ± 0.28 | – | –
RMLQREGCFRSQGASLRLAVEDGL [M1AP] | 3.1 ± 0.22 | 2.94 ± 0.14 | – | –
LALCQRYYHRGHVDPANDTFDIDP [MCOLN1] | 3.11 ± 0.13 | 3.23 ± 0.29 | – | –
APFPPPPAADGARAPRSPGQVTPR [C6orf223] | 5.14 ± 0.54 | 5.25 ± 0.11 | – | –
TSSAKVDMTFEEEAQLLQLKVKCL [FKBP8] | 3.48 ± 0.28 | 3.54 ± 0.33 | – | –
SEEAAVLQYASLVGQKCSERMLLF [ATE1] | 2.37 ± 0.4 | 2.19 ± 0.34 | – | –
PTVTIEGFLQALSLAVDKQFEERK [TRIP13] | 2.29 ± 0.61 | 2.13 ± 0.44 | – | –
RREAVQRGRMPPTQPTHGQFALTN [NR2F2] | 3.9 ± 0.29 | 3.99 ± 0.25 | – | –
DLLNNKLVTLPVSFAQLKNLKWLD [LRRC59] | 2.24 ± 0.23 | 2.17 ± 0.31 | – | –
LDSVSPCPSSPKQIHLDVDNDRTT [DLC1] | 5.37 ± 0.13 | 5.55 ± 0.099 | – | –
SSGLQDVTGPDNGVRESETEQGFG [NFE2L1] | 5.6 ± 0.17 | 5.39 ± 0.35 | – | –
AGGRVFVLPCIQQIQRISLNTLTL [FLOT1] | 2.96 ± 0.57 | 2.93 ± 0.59 | – | –
EDEDKSEPEQTGADAAEDEEVDVT [RBBP5] | 5.66 ± 0.28 | 5.73 ± 0.31 | – | –
AIHGYTVWAHNLIAIARLRGSDLK [FBXO33] | 3.13 ± 0.8 | 2.46 ± 0.42 | – | –
LKSKAEAEALYQTKFQELQLAAGR [KRT71] | 3.73 ± 0.22 | 3.85 ± 0.41 | – | –
NISGHTNTNTLKVPECRLAEDLGN [SPOPL] | 3.53 ± 0.26 | 3.7 ± 0.19 | – | –
YQEASNLEQFVTRFLLKETLNQLQ [NECAB1] | 2.66 ± 0.81 | 2.44 ± 0.69 | – | –

Sequence | protein stability index [1] | protein stability index [2] | protein stability index [3] | protein stability index [4]
TPHTPKSLLSKARGIDSSSVKLRG [WEE1] | 4.26 ± 0.54 | 4.08 ± 0.28 | – | –
GRAVDQDKVLRFAQQIRLHHFNSS [MYORG] | 2.51 ± 0.27 | 2.75 ± 0.34 | – | –
LLREEEYVAPPRGPLPTLQVVPL [TRAF3IP2] | – | – | 2.35 ± 0.3 | 2.05 ± 0.33
ALRAAEVWMDDFKSHVYMAWNIPM [GALNT9] | 2.35 ± 0.8 | 2.24 ± 0.71 | – | –
SCQSFISWTGDGWEFKLSDPDEVA [ETS1] | 3.12 ± 0.13 | 3.06 ± 0.31 | – | –
PFDGLLEERALLLGRMGKHEQALF [VPS39] | 2.59 ± 0.28 | 2.67 ± 0.37 | – | –
DEDSEPEREVRAKNGRVDSEDRRS [USP39] | 5.62 ± 0.33 | 5.517 ± 0.016 | – | –
GRLPRIPQVLSQEFTELLKVMIHP [WEE1] | 2.48 ± 0.53 | 2.47 ± 0.45 | – | –
EPTEVEEVVPALEPTETLLSEKEI [BCL2L13] | 5.5 ± 0.35 | 5.71 ± 0.12 | – | –
KAETKTKKAAESLRRSVEKYNSAR [FCHO1] | 4.64 ± 0.22 | 4.72 ± 0.075 | – | –
YDPNYMSPFAQFACDNGLNVRGGK [PPTC7] | 3.63 ± 1 | 4.11 ± 0.43 | – | –
VLTAVDGGTPARSGTTLISVIVLD [PCDHGC5] | 2.34 ± 0.47 | 2.26 ± 0.22 | – | –
DRSTEPDRLQVFHKRAIMPYGVYK [ATE1] | 3.44 ± 0.24 | 3.47 ± 0.26 | – | –
EALAATWEQPWASEVFGPERMPPS [PXN] | 3.33 ± 0.27 | 3.5 ± 0.47 | – | –
LPPYPPYFEGAPFPHPLWLRDTYK [PWWP2B] | 2.54 ± 0.39 | 2.5 ± 0.12 | – | –
YIYYNEKYGGPNHHLPLPDNWKSQ [CPN1] | 2.46 ± 0.75 | 2.35 ± 0.37 | – | –
LRKRKEIREDRDRARLDSMVLLIM [DLC1] | 2.08 ± 0.51 | 2.17 ± 0.34 | – | –
TSGKLLLEADELCDDGGDGRGAVV [ZBTB22] | 5.36 ± 0.29 | 5.31 ± 0.1 | – | –
MEMTRPTPPHLTSAMAENILAAAC [NOL4L] | 3.38 ± 0.3 | 3.18 ± 0.34 | – | –
IRPDPRSRVTDPVGDIVSFMHSFE [FAF2] | 3.06 ± 0.42 | 3.09 ± 0.33 | – | –
SIYGIPHSTLEYKVKERLGTLKNP [LCOR] | 3.12 ± 0.31 | 3.2 ± 0.52 | – | –
QVLFDKVCEHLNLLEKDYFGLTYR [EPB41L3] | 2.4 ± 0.13 | 2.55 ± 0.28 | – | –
LMAPTCVFLASKVEEFGVVSNTRL [CCNC] | 2.2 ± 0.34 | 2.21 ± 0.14 | – | –

Sequence | protein stability index [1] | protein stability index [2] | protein stability index [3] | protein stability index [4]
ILIQHQKAKHFKCHICHKKLYTGP [ZNF207] | 2.44 ± 0.12 | 1.88 ± 0.38 | – | –
AESHASKDVAIDMMDSRTSQQLQL [STX5] | 4.98 ± 0.11 | 4.89 ± 0.18 | – | –
TFESPADAKDAARDMNGKSLDGKA [RBMX] | 5.39 ± 0.3 | 5.55 ± 0.12 | – | –
AAARAAQRRRRVENAGGSPSPEPA [RSAD1] | 5.25 ± 0.087 | 5.12 ± 0.44 | – | –
HFKKQTIYRFLKLHPRGKNNFSPL [FEM1C] | 2.71 ± 0.32 | 1.96 ± 0.14 | – | –
LNELPVPMVARYIRINPQSWFDNG [CPXM2] | 2.21 ± 0.42 | 2.43 ± 0.28 | – | –
YLLALTIIVSIVHSVFEFLAFKND [CLPTM1] | 2.985 ± 0.024 | 2.85 ± 0.5 | – | –
FKCRNKTSGQVVAVKKFVESEDDP [CDKL4] | 4.7 ± 0.089 | 4.94 ± 0.28 | – | –
SNPNGNGGFMGYSAENIPGCSSSG [CRY1] | 4.57 ± 0.24 | 4.34 ± 0.35 | – | –
ALDERAKVLHEDKQTREQLHSISD [TRIM29] | 5.25 ± 0.27 | 5.31 ± 0.37 | – | –
LGGEDGEKELISMECYDIYSKTWT [GAN] | 3.31 ± 0.45 | 3.19 ± 0.24 | – | –
VKTWFQNQRMKSKRWQKNNWPKNS [NANOGP8] | 2.21 ± 0.57 | 2.42 ± 0.38 | – | –
RTFGPPPSLSPGAFSYSSSSRFSS [PRPH] | 3.42 ± 0.21 | 3.8 ± 0.3 | – | –
LEVKIRDWYQRQRPSEIKDYSPYF [KRT16] | 2.19 ± 0.2 | 2.24 ± 0.49 | – | –
RNVTGTPLTGDKDDEEVDTHFASQ [ADAMTSL2] | 5.5 ± 0.22 | 5.32 ± 0.27 | – | –
PLEAMYMQCPVIAVNSGGPLESID [ALG2] | 3.61 ± 0.33 | 3.86 ± 0.22 | – | –
FKAKEAAALGSRGSCSTEVEKETQ [ATP6V1G1] | 2.94 ± 0.44 | 3.26 ± 0.27 | – | –
LRNNQISHKGAEELALALKGNTTL [LRRC45] | 3.92 ± 0.14 | 4.05 ± 0.21 | – | –
ALRGAAVDEYFRQPVVDTFDIRIL [CARM1] | 2.48 ± 0.45 | 2.6 ± 0.27 | – | –
GHSFCRPCLCLSWEEAQSPANCPA [TRIM43] | 3.47 ± 0.34 | 3.66 ± 0.29 | – | –
